Residue numbers refer to the chain shown, from its start.
T1: non-phosphorylated C-terminal TDP-43 peptide NAGSGSGFNGGFGSSMDSKSSGWGM (human, N-terminally biotinylated)
T1 construct: Synthetic biotinylated peptide captured on streptavidin plates; also called non-phosphorylated TDP-43
T1 peptide: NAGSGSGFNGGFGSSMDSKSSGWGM

B1: anti-TDP43 clone C, scFv format (scFv)
scFv: QVQLVQSGAEVKKPGASVKVSCKASGFTFTEYSMHWVRQAPGQGLEWMGGINPNNGGTSYNQKFQGRVTMTRDTSTSTVYMELSSLRSEDTAVYYCARESWGQGTLVTVSSGGGGSGGGGSGGGGSDIVMTQSPLSLPVTPGEPASISCKSSQSLLHSDGKTYLNWYLQKPGQSPQLLIYLGSNRASGVPDRFSGSGSGTDFTLKISRVEAEDVGVYYCFQGTHFPHTFGGGTKVEIK
B2: anti-TDP43 clone I, scFv format (scFv)
scFv: B1 scFv with S59I, F220M
notes: also called VecTab I (as AAV5.2-encoded scFv)
B3: anti-TDP43 clone G, scFv format (scFv)
scFv: B1 scFv with R98S, G182V, N184K, R185L, A186K, F220M
notes: also called VecTab G (as AAV5.2-encoded scFv)
B4: anti-TDP43 clone B, scFv format (scFv)
scFv: B1 scFv with Y32L, G182A, N184R
notes: also called VecTab B (as AAV5.2-encoded scFv)
B5: anti-TDP43 clone C, full-length human IgG1 format (antibody, V domains shown)
VH: QVQLVQSGAEVKKPGASVKVSCKASGFTFTEYSMHWVRQAPGQGLEWMGGINPNNGGTSYNQKFQGRVTMTRDTSTSTVYMELSSLRSEDTAVYYCARESWGQGTLVTVSS
VL: DIVMTQSPLSLPVTPGEPASISCKSSQSLLHSDGKTYLNWYLQKPGQSPQLLIYLGSNRASGVPDRFSGSGSGTDFTLKISRVEAEDVGVYYCFQGTHFPHTFGGGTKVEIK
notes: Tested as full-length human IgG1
B6: anti-TDP43 clone I, full-length human IgG1 format (antibody, V domains shown)
VH: B5 VH with S59I
VL: B5 VL with F94M
notes: as for B5
B7: anti-TDP43 clone G, full-length human IgG1 format (antibody, V domains shown)
VH: B5 VH with R98S
VL: B5 VL with G56V, N58K, R59L, A60K, F94M
notes: as for B5
B8: anti-TDP43 clone O, full-length human IgG1 format (antibody, V domains shown)
VH: QVQLVQSGAEVKKPGASVKVSCKASGYTFTKYWMHWVRQAPGQGLEWMGEINPKNGRTNYNQKFQGRVTMTRDTSTSTVYMELSSLRSEDTAVYYCWRYMDYWGQGTLVTVSS
VL: DIVMTQSPLSLPVTPGEPASISCRSSQSLLHSNGYNYLDWYLQKPGQSPQLLIYKVSNRFSGVPDRFSGSGSGTDFTLKISRVEAEDVGVYYCLQHTHWPPTFGGGTKVEIK
notes: as for B5
B9: anti-TDP43 clone X, full-length human IgG1 format (antibody, V domains shown)
VH: B8 VH with K31S, Y32H, W33Y, M34L, E50I, K54S
VL: B8 VL with K55E
notes: as for B5
B10: anti-TDP43 clone S, scFv format (scFv)
scFv: QVQLVQSGAEVKKPGASVKVSCKASGYTFTKYWMHWVRQAPGQGLEWMGEINPSNGRTNYPQKFQGRVTMTRDTSTSTVYMELSSLRSEDTAVYYCWRYMDYWGQGTLVTVSSGGGGSGGGGSGGGGSDIVMTQSPLSLPVTPGEPASISCRSSQSLLHSNGYNYLDWYLQKPGQSPQLLIYKVSNRFTGVPDRFSGSGSGTDFTLKISRVEAEDVGVYYCMQHTHWPPAFGGGTKVEIK
notes: also called VecTab S (as AAV5.2-encoded scFv)
B11: anti-TDP43 clone X, scFv format (scFv)
scFv: B10 scFv with K31S, Y32H, W33Y, M34L, E50I, P61N, K183E, T189S, M222L, A230T

Target: T1, non-phosphorylated C-terminal TDP-43 …
Experiment: ELISA, biotinylated peptide on streptavidin plate, scFv format, rabbit anti-G4S and anti-rabbit HRP
Description: (§1) The ability of clones to bind phosphorylated TDP-43 and/or non-phosphorylated TDP-43 was assessed using N-terminally biotinylated TDP-43 peptides having the following sequences: […] (SEQ ID NO: 218; non-phosphorylated); […] {PSER} SGWGM (SEQ ID NO: 219; phosphorylated S409); […] {PSER} GWGM (SEQ ID NO: 220; phosphorylated S410); and […] {PSER} {PSER} GWGM (SEQ ID NO: 221; phosphorylated S409/S410). Peptides were dissolved in 100% DMSO, aliquoted, and stored in −80° C. before use. Wells were incubated with 100 μL (5 μg/mL) of the peptides on streptavidin plates overnight at 4° C. The plates were then washed 3× in PBST wash buffer. Antibody clones B, C, G, I, O, S, U, and X, and non-binding controls (VRC07 for full-length IgG, and anti-methamphetamine clone 6H4 as control for the scFv experiments) were made in full-length human IgG₁ and scFv formats (IpA), and dilutions were prepared in blocking buffer (2% BSA). 100 μL/well of the dilutions were added to coated plates and the plates were incubated at RT for 1 hour. The plates were subsequently washed 3× with 250 μL/well wash buffer. 100 μL/well of primary antibody CEN63-C13 Rb-a-G4S (IpA) diluted in blocking buffer (2 μg/ml) was added and the plates were incubated for 1 hour at RT followed by 3× washing in PBST. For detection, 100 μL/well secondary antibodies (goat anti human IgG₁ HRP (Jackson ImmunoResearch) or goat anti-rabbit HRP for scFv (Promega)) diluted in blocking buffer (1:5000) was added to the wells and the plates were incubated for 1 hour at RT. The plates were subsequently washed 3× and 100 μL/well of TMB ready solution was added to the wells, followed by 3-4 minutes incubation in the dark. The reaction was stopped with 1M H₂SO₄ added to the wells (100 μL/well), and absorption measured on a GloMax plate reader (Promega) at […].

Binder | binding result
B1 | binds
B2 | binds
B3 | binds
B4 | binds

Target: T1, non-phosphorylated C-terminal TDP-43 …
Experiment: ELISA, biotinylated peptide on streptavidin plate, IgG1 format, anti-human IgG1 HRP
Description: as §1

Binder | binding result
B5 | binds
B6 | binds
B7 | binds
B8 | binds
B9 | binds

Target: T1, non-phosphorylated C-terminal TDP-43 …
Experiment: ELISA, biotinylated peptide on streptavidin plate, scFv format, rabbit anti-G4S and anti-rabbit HRP; profile referred to: less efficient at binding non-phosphorylated TDP-43
Description: as §1, with “100 μL/well of primary antibody CEN63-C13 Rb-a-G4S (IpA) diluted in blocking buffer (2 μg/ml) was added and the plates were incubated for 1 hour at RT followed by 3× washing in PBST. For detection, 100 μL/well secondary antibodies (goat anti human IgG₁ HRP (Jackson ImmunoResearch) or goat anti-rabbit HRP for scFv (Promega)) diluted in blocking buffer (1:5000) was added to the wells and the plates were incubated for 1 hour at RT.” left out

Binder | binding result
B10 | binds
B11 | binds

From patent US20260176307A1 (VECTORY THERAPEUTICS B V, published 2026)
